Data as given in patent US12692310B2, “ASIC1 channel antagonist antibody” (ShanghaiTech University, priority 2019, dated 2026).

Experiments:
Assay in all cases: FACS binding to alanine mutant hASIC1a-eYFP on CHO-K1 cells
Details in all cases: vs WT hASIC1a
hASIC1a N322A = target: T1, hASIC1a N322A (Homo sapiens, UniProt P78348, N322A); assay type: cell-based
T1 construct: expressed in transfected cells; host or cells: CHO-K1, transient
T1 sequence (P78348 1-528 N322A): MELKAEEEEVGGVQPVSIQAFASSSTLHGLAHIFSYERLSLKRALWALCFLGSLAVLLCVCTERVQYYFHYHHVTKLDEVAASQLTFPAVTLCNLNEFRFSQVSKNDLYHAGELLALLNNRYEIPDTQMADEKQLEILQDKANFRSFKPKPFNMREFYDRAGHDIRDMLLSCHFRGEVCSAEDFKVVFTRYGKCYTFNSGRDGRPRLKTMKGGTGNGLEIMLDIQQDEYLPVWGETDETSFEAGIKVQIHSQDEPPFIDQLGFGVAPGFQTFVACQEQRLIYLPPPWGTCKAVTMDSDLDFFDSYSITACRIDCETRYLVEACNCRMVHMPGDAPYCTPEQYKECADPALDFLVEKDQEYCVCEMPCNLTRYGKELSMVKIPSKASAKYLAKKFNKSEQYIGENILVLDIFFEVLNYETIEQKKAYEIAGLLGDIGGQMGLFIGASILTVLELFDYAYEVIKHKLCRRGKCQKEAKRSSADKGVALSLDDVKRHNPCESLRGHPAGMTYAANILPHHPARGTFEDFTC
Protocol: (§1) To confirm the role of these amino acids, alanine mutagenesis was performed and four amino acids are very important for antibody binding were identified. Plasmid encoding single amino acid mutation of hASIC1a-eYFP was constructed and transient transfected into CHO-K1 cells. FACS binding assay was then performed to test whether the ASC06-IgG1 still binds to cell surface expressing mutated hASIC1a.

hASIC1a Y318A = target: T2, hASIC1a Y318A (Homo sapiens, UniProt P78348, Y318A); assay type: cell-based
T2 construct: expressed in transfected cells; host or cells: CHO-K1, transient
T2 sequence (P78348 1-528 Y318A): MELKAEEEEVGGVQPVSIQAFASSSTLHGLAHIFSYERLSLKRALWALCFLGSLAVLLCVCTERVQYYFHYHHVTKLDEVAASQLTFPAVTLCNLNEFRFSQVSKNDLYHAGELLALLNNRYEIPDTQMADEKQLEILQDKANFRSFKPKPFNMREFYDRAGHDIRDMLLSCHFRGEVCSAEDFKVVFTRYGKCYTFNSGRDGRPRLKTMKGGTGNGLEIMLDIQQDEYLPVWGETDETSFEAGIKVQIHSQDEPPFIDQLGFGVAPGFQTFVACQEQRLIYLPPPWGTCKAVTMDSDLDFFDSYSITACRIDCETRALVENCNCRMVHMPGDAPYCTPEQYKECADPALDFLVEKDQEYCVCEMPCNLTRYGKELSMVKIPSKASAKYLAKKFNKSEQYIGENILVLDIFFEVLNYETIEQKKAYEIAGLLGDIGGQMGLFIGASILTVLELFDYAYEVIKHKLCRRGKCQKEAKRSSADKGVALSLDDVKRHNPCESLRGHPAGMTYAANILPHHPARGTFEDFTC
Protocol: as §1

hASIC1a Y360A = target: T3, hASIC1a Y360A (Homo sapiens, UniProt P78348, Y360A); assay type: cell-based
T3 construct: expressed in transfected cells; host or cells: CHO-K1, transient
T3 sequence (P78348 1-528 Y360A): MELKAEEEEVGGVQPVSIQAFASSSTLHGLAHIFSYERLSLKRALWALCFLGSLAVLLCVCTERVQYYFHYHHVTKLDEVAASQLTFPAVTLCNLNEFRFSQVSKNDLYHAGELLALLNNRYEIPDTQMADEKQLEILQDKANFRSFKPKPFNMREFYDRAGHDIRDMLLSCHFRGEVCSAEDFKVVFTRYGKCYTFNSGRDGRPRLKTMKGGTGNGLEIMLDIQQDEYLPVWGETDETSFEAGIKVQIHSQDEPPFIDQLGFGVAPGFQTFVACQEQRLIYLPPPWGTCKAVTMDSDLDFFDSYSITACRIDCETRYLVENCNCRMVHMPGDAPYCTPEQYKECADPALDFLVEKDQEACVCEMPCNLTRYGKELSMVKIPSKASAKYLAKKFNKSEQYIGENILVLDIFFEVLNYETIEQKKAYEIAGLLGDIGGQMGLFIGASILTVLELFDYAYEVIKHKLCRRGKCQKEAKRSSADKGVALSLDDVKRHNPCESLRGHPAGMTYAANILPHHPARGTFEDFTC
Protocol: as §1

hASIC1a F252A = assay type: cell-based, human
Protocol: as §1

B1: ASC06-IgG1: ASC06 antibody converted into a full length IgG1 form (antibody, V domains shown)
VH: QVQLQQSGGGLVQPGGSLRLSCAASGFTFSSYAMSWVRQAPGKGLEWVSAISGSGGSTYYADSVKGRFTISRDNSKNTLYLQMNSLRAEDTAVYYCAKDSFYGYSKGDWGQGTLVTVSS
VL: QSALTQPASVSGSPGQSITISCTGTSSDVGAYNYVSWYQQQPGKAPKLMIYGVSNRPSGVSNRFSGSKSGNAASLTISGLQAEDEADYYCSSYTSSSTYVFGTGTKLTVLG
hASIC1a N322A
  binding to hASIC1a N322A mutation: decrease
hASIC1a Y318A
  binding to hASIC1a Y318A mutation: abolished
hASIC1a Y360A
  binding to hASIC1a Y360A mutation: decrease
hASIC1a F252A
  binding to hASIC1a F252A mutation: so does
